# Patent US20120172295A1 (INDIANA UNIVERSITY RESEARCH AND TECHNOLOGY, published 2012)
# Where two headings read alike, the source gives them in different places. Starred links: 1 amine or outer side, 2 acyl side, 3 side chain; linkers in the order of their positions; H or OH if unused. Positions of bridges follow the written chain, without caps; N, C: chain ends. Non-standard residues stand in square brackets, D forms with d. Groups on a side chain read outwards from the residue. No end group written: not given here. *: point of attachment. γGlu = O=C(O)[C@H](CCC(=O)[*:2])N[*:1]; Palmitoyl = CCCCCCCCCCCCCCCC(=O)*; Aib = CC(C)(N)C(=O)O
# Assays:
# Experiment in all cases: cell-based or functional assay
# GLP-1 receptor [1] = biological target: T1, GLP-1 receptor (UniProt P43220 24-463, limits assumed)
# glucagon receptor [2] = biological target: T2, glucagon receptor (UniProt P47871 26-477, limits assumed)
# GLP-1 receptor [3] = biological target: T1, GLP-1 receptor; remark: listed apart in the source
# glucagon receptor [4] = biological target: T2, glucagon receptor; remark: listed apart in the source
# GLP-1 receptor [5] = biological target: T1, GLP-1 receptor; remark: listed apart in the source
# glucagon receptor [6] = biological target: T2, glucagon receptor; remark: listed apart in the source
# GLP-1 receptor [7] = biological target: T1, GLP-1 receptor; remark: listed apart in the source
# GIP receptor [8] = biological target: T3, GIP receptor (UniProt P48546 22-466)
# T3 sequence (looked up): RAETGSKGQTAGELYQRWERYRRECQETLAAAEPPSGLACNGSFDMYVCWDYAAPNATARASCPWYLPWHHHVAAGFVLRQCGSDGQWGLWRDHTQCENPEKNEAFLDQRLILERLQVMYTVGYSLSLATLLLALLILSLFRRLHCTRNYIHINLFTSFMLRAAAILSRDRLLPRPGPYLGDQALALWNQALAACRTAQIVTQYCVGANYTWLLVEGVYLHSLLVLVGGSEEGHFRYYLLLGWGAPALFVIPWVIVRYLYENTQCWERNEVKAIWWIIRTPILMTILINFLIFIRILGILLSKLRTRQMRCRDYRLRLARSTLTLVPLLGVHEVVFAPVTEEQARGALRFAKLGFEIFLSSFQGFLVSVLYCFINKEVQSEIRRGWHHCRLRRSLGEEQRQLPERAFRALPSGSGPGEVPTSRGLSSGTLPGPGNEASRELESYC
# glucagon receptor [9] = biological target: T2, glucagon receptor; remark: listed apart in the source
# GLP-1 receptor [10] = biological target: T1, GLP-1 receptor; remark: listed apart in the source
# GIP receptor [11] = biological target: T3, GIP receptor; remark: listed apart in the source
# glucagon receptor [12] = biological target: T2, glucagon receptor; remark: listed apart in the source
# GLP-1 receptor [13] = biological target: T1, GLP-1 receptor; remark: listed apart in the source
# GIP receptor [14] = biological target: T3, GIP receptor; remark: listed apart in the source
# glucagon receptor [15] = biological target: T2, glucagon receptor; remark: listed apart in the source
# GLP-1 receptor [16] = biological target: T1, GLP-1 receptor; remark: listed apart in the source
# T2 sequence (P47871 26-477 limits assumed): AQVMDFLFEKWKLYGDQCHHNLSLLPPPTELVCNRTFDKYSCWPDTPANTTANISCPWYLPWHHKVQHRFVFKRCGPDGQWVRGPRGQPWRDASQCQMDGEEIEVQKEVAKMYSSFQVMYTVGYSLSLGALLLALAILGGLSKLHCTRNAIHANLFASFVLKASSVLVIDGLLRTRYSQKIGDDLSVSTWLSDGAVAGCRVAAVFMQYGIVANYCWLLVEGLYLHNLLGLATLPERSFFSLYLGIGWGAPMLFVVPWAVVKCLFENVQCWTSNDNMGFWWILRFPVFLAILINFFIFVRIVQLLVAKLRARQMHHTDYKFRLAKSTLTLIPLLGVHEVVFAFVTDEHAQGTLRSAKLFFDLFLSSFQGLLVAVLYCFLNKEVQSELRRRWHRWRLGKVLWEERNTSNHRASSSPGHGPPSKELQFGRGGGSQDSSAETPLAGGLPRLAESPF
binder,measurement,setting,value
HSQGTFTSDYSKYLDERRAKDFVQWLMNT-NH2 (lactam 16-20; N-terminus assumed; SMILES CSCC[C@H](NC(=O)[C@H](CC(C)C)NC(=O)[C@H](Cc1c[nH]c2ccccc12)NC(=O)[C@H](CCC(N)=O)NC(=O)[C@@H](NC(=O)[C@H](Cc1ccccc1)NC(=O)[C@H](CC(=O)O)NC(=O)[C@@H]1CCCCNC(=O)CC[C@H](NC(=O)[C@H](CC(=O)O)NC(=O)[C@H](CC(C)C)NC(=O)[C@H](Cc2ccc(O)cc2)NC(=O)[C@H](CCCCN)NC(=O)[C@H](CO)NC(=O)[C@H](Cc2ccc(O)cc2)NC(=O)[C@H](CC(=O)O)NC(=O)[C@H](CO)NC(=O)[C@@H](NC(=O)[C@H](Cc2ccccc2)NC(=O)[C@@H](NC(=O)CNC(=O)[C@H](CCC(N)=O)NC(=O)[C@H](CO)NC(=O)[C@@H](N)Cc2c[nH]cn2)[C@@H](C)O)[C@@H](C)O)C(=O)N[C@@H](CCCNC(=N)N)C(=O)N[C@@H](CCCNC(=N)N)C(=O)N[C@@H](C)C(=O)N1)C(C)C)C(=O)N[C@@H](CC(N)=O)C(=O)N[C@H](C(N)=O)[C@@H](C)O) [E16K20 Gluc-NH2 Lac],Percent Potency Relative to Native Ligand,GLP-1 receptor [1],63%
same,Percent Potency Relative to Native Ligand,glucagon receptor [2],181%
HSQGTFTSDYSRYLDSRRAQDFVQWLMNK [Glucagon R12 K29],cAMP induction EC50,GLP-1 receptor [3],0.41 nM
same,cAMP induction EC50,glucagon receptor [4],0.81 nM
H[Aib]QGTFTSDK([Trp-Palmitoyl])SKYLD[Aib]RRA[Aib]DFVCWLMNT-NH2 (N-terminus assumed; SMILES CCCCCCCCCCCCCCCC(=O)N[C@@H](Cc1c[nH]c2ccccc12)C(=O)NCCCC[C@H](NC(=O)[C@H](CC(=O)O)NC(=O)[C@H](CO)NC(=O)[C@@H](NC(=O)[C@H](Cc1ccccc1)NC(=O)[C@@H](NC(=O)CNC(=O)[C@H](CCC(N)=O)NC(=O)C(C)(C)NC(=O)[C@@H](N)Cc1c[nH]cn1)[C@@H](C)O)[C@@H](C)O)C(=O)N[C@@H](CO)C(=O)N[C@@H](CCCCN)C(=O)N[C@@H](Cc1ccc(O)cc1)C(=O)N[C@@H](CC(C)C)C(=O)N[C@@H](CC(=O)O)C(=O)NC(C)(C)C(=O)N[C@@H](CCCNC(=N)N)C(=O)N[C@@H](CCCNC(=N)N)C(=O)N[C@@H](C)C(=O)NC(C)(C)C(=O)N[C@@H](CC(=O)O)C(=O)N[C@@H](Cc1ccccc1)C(=O)N[C@H](C(=O)N[C@@H](CS)C(=O)N[C@@H](Cc1c[nH]c2ccccc12)C(=O)N[C@@H](CC(C)C)C(=O)N[C@@H](CCSC)C(=O)N[C@@H](CC(N)=O)C(=O)N[C@H](C(N)=O)[C@@H](C)O)C(C)C) [Glucagon (1-29a) Aib2 Lys10-Trp-C16 Aib16 Aib20 Cys24],EC50,GLP-1 receptor [5],1.15 nM
same,EC50,glucagon receptor [6],2.06 nM
H[Aib]QGTFTSDK([Trp-Palmitoyl])SKYLD[Aib]RRA[Aib]DFVC(PEG 40 kDa)WLMNT-NH2 [Glucagon (1-29a) Aib2 Lys10-Trp-C16 Aib16 Aib20 Cys24-40 kD],EC50,GLP-1 receptor [5],0.6 nM
same,EC50,glucagon receptor [6],2.37 nM
HSQGTFTSDYSKYLDSRRAQDFVQWLMNTGPSSGAPPPS (C-terminal amide) [Glucagon-Cex],cAMP induction EC50,glucagon receptor [4],0.25 nM
HXQGTFTSDYSKYLDEQAAKEFIAWLMNGGPSSGAPPPSK (acylated Lys at 40) [mt-364],% Relative activity,GLP-1 receptor [7],355%
same,% Relative activity,GIP receptor [8],15.7%
same,% Relative activity,glucagon receptor [9],350%
same,% Relative activity,GLP-1 receptor [10],355%
same,% Relative activity,GIP receptor [11],15.7%
same,% Relative activity,glucagon receptor [12],350%
same,% Relative activity,GLP-1 receptor [13],355%
same,EC50,GLP-1 receptor [13],0.007 nM
same,% Relative activity,GIP receptor [14],15.7%
same,% Relative activity,glucagon receptor [15],350%
same,EC50,glucagon receptor [15],0.0183 nM
"HSQGTFTSDYSKYLEERRAQDFVQWLMNT-NH2 [E15, E16 Gluc-NH2]",Percent Potency Relative to Native Ligand,GLP-1 receptor [16],9.2%
Y[Aib]QGTFISDYSIYLDKQAA[Aib]EFVNWLLAGGPSSGAPPPSK(Palmitoyl)-NH2 [mt-358],% Relative activity,GLP-1 receptor [10],11.9%
same,% Relative activity,GIP receptor [11],314%
same,% Relative activity,glucagon receptor [12],710%
H[Aib]QGTFTSDYSKYLD[Aib]RRAQDFVQWLMNTGPSSGAPPPSK([γGlu-γGlu-Palmitoyl])-NH2 (N-terminus assumed; SMILES CCCCCCCCCCCCCCCC(=O)N[C@@H](CCC(=O)N[C@@H](CCC(=O)NCCCC[C@H](NC(=O)[C@H](CO)NC(=O)[C@@H]1CCCN1C(=O)[C@@H]1CCCN1C(=O)[C@@H]1CCCN1C(=O)[C@H](C)NC(=O)CNC(=O)[C@H](CO)NC(=O)[C@H](CO)NC(=O)[C@@H]1CCCN1C(=O)CNC(=O)[C@@H](NC(=O)[C@H](CC(N)=O)NC(=O)[C@H](CCSC)NC(=O)[C@H](CC(C)C)NC(=O)[C@H](Cc1c[nH]c2ccccc12)NC(=O)[C@H](CCC(N)=O)NC(=O)[C@@H](NC(=O)[C@H](Cc1ccccc1)NC(=O)[C@H](CC(=O)O)NC(=O)[C@H](CCC(N)=O)NC(=O)[C@H](C)NC(=O)[C@H](CCCNC(=N)N)NC(=O)[C@H](CCCNC(=N)N)NC(=O)C(C)(C)NC(=O)[C@H](CC(=O)O)NC(=O)[C@H](CC(C)C)NC(=O)[C@H](Cc1ccc(O)cc1)NC(=O)[C@H](CCCCN)NC(=O)[C@H](CO)NC(=O)[C@H](Cc1ccc(O)cc1)NC(=O)[C@H](CC(=O)O)NC(=O)[C@H](CO)NC(=O)[C@@H](NC(=O)[C@H](Cc1ccccc1)NC(=O)[C@@H](NC(=O)CNC(=O)[C@H](CCC(N)=O)NC(=O)C(C)(C)NC(=O)[C@@H](N)Cc1c[nH]cn1)[C@@H](C)O)[C@@H](C)O)C(C)C)[C@@H](C)O)C(N)=O)C(=O)O)C(=O)O) [Peptide 900],% Relative activity,GLP-1 receptor [7],383%
same,% Relative activity,GIP receptor [8],2.89%
same,% Relative activity,glucagon receptor [9],560%
H[Aib]QGTFTSDK([γGlu-γGlu-Palmitoyl])SKYLD[Aib]RRAQDFVQWLMNTGPSSGAPPPS-NH2 (N-terminus assumed; SMILES CCCCCCCCCCCCCCCC(=O)N[C@@H](CCC(=O)N[C@@H](CCC(=O)NCCCC[C@H](NC(=O)[C@H](CC(=O)O)NC(=O)[C@H](CO)NC(=O)[C@@H](NC(=O)[C@H](Cc1ccccc1)NC(=O)[C@@H](NC(=O)CNC(=O)[C@H](CCC(N)=O)NC(=O)C(C)(C)NC(=O)[C@@H](N)Cc1c[nH]cn1)[C@@H](C)O)[C@@H](C)O)C(=O)N[C@@H](CO)C(=O)N[C@@H](CCCCN)C(=O)N[C@@H](Cc1ccc(O)cc1)C(=O)N[C@@H](CC(C)C)C(=O)N[C@@H](CC(=O)O)C(=O)NC(C)(C)C(=O)N[C@@H](CCCNC(=N)N)C(=O)N[C@@H](CCCNC(=N)N)C(=O)N[C@@H](C)C(=O)N[C@@H](CCC(N)=O)C(=O)N[C@@H](CC(=O)O)C(=O)N[C@@H](Cc1ccccc1)C(=O)N[C@H](C(=O)N[C@@H](CCC(N)=O)C(=O)N[C@@H](Cc1c[nH]c2ccccc12)C(=O)N[C@@H](CC(C)C)C(=O)N[C@@H](CCSC)C(=O)N[C@@H](CC(N)=O)C(=O)N[C@H](C(=O)NCC(=O)N1CCC[C@H]1C(=O)N[C@@H](CO)C(=O)N[C@@H](CO)C(=O)NCC(=O)N[C@@H](C)C(=O)N1CCC[C@H]1C(=O)N1CCC[C@H]1C(=O)N1CCC[C@H]1C(=O)N[C@@H](CO)C(N)=O)[C@@H](C)O)C(C)C)C(=O)O)C(=O)O) [Peptide 901],% Relative activity,GLP-1 receptor [7],460%
same,% Relative activity,GIP receptor [8],8.65%
same,% Relative activity,glucagon receptor [9],560%
